# Experimental data as given in article PMC5595889.
# Molecular target: mouse importin α1 lacking the N-terminal importin-β-binding domain (ΔIBB-importin α1) (mouse)
# Assay: ITC
substance,measurement,value
influenza NLS1 peptide (1-…-13),Kd,4.9 µM
